Assay results as given in the supplement of paper PMC11136658.

Tested on: peptide library, one residue held at a place counted from the Y acceptor
Experiment: relative phosphorylation of the sub-library (ratio to the mean residue at this position); higher = residue favoured
How it was run: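 In 384-well plates, purified recombinant kinases were incubated for 90 min with 50 μM ATP containing γ-32P-ATP and biotinylated Tyr-centred peptide libraries, each mixture fixing one residue at a single position between −5 and +5. After capture on streptavidin membranes and rinsing, peptides were quantified by phosphorimaging with ImageQuant. Per-position intensities were scaled to the sum of the 18 (Ser/Thr-free library: 16) randomized residues, then multiplied by that number.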

Chain of TNNI3K, construct: aa1-727, human (Q59H18 1-727, looked up): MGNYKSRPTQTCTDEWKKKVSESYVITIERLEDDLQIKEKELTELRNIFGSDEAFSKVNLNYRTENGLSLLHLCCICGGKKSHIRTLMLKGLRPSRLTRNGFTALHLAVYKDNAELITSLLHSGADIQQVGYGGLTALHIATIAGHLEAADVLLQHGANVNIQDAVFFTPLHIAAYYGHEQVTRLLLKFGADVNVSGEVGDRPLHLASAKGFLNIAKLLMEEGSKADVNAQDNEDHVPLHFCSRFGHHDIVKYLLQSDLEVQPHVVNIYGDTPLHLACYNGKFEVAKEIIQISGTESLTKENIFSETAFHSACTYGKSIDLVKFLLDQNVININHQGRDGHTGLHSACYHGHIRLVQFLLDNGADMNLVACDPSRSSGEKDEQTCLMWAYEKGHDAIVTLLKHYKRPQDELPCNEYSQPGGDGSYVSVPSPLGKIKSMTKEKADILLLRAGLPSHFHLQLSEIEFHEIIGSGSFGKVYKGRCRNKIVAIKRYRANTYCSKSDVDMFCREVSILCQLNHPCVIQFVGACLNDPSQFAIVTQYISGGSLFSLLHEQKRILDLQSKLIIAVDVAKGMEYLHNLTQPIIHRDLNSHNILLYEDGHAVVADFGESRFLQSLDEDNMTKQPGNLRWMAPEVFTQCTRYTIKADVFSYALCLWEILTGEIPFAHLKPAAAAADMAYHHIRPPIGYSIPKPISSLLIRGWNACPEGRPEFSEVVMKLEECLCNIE
Chain of TYRO3, construct: aa455-end, human (Q06418 455-890, looked up): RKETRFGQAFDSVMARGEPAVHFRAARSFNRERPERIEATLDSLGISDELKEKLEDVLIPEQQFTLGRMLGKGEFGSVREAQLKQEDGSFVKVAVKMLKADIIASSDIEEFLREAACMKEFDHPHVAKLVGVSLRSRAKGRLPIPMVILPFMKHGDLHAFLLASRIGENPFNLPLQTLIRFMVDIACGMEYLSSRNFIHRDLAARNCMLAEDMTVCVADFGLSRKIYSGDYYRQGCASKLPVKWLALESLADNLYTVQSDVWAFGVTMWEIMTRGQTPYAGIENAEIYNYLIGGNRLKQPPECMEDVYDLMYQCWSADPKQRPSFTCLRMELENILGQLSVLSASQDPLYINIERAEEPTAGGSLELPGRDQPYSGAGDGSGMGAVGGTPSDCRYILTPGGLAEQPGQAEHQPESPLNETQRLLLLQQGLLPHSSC

TNNI3K, construct: aa1-727, human (from UniProt Q59H18)
relative phosphorylation
Details | at +1 | at +2 | at +3 | at +4 | at +5 | at -1 | at -2 | at -3 | at -4 | at -5
A fixed | 1.74 | 0.816 | 0.787 | 0.992 | 0.912 | 1.78 | 1.09 | 0.969 | 1.16 | 1.17
D fixed | 0.328 | 0.35 | 0.376 | 0.377 | 0.577 | 1.18 | 0.589 | 0.741 | 0.664 | 0.668
E fixed | 0.277 | 0.288 | 0.455 | 0.35 | 0.483 | 1.23 | 0.717 | 0.683 | 0.757 | 0.538
F fixed | 0.587 | 0.975 | 1.03 | 1.01 | 1.04 | 0.637 | 0.998 | 1.12 | 1.05 | 1.09
G fixed | 0.605 | 0.86 | 0.909 | 1.12 | 0.791 | 1.1 | 1.34 | 1.34 | 1.5 | 1.35
H fixed | 0.57 | 1.04 | 1.22 | 0.997 | 1.04 | 0.943 | 1.18 | 1.13 | 1.04 | 0.979
I fixed | 2.26 | 0.78 | 0.929 | 0.945 | 0.795 | 0.572 | 1.03 | 0.914 | 0.894 | 0.958
K fixed | 0.896 | 1.83 | 1.68 | 1.24 | 1.76 | 0.641 | 0.992 | 0.982 | 1.22 | 1.22
L fixed | 0.79 | 0.65 | 1.02 | 1.11 | 1.01 | 0.477 | 0.805 | 0.863 | 0.949 | 1.06
M fixed | 0.914 | 0.661 | 0.751 | 1.1 | 0.948 | 0.553 | 0.738 | 0.781 | 0.853 | 0.787
N fixed | 0.62 | 0.853 | 0.837 | 0.74 | 0.85 | 1.44 | 1.02 | 0.99 | 0.765 | 0.77
P fixed | 0.555 | 0.774 | 0.847 | 1.21 | 1.06 | 1.13 | 0.928 | 1.27 | 1.11 | 1.18
Q fixed | 0.746 | 0.978 | 1.13 | 0.952 | 0.861 | 1.24 | 1.05 | 0.815 | 0.925 | 0.808
R fixed | 1.23 | 2.79 | 2.39 | 1.73 | 1.98 | 0.687 | 1.4 | 1.07 | 1.25 | 1.21
V fixed | 2.88 | 0.736 | 0.835 | 0.979 | 0.83 | 0.701 | 0.996 | 1.05 | 0.947 | 0.98
W fixed | 0.784 | 1.39 | 0.892 | 1.27 | 1.08 | 0.579 | 1.11 | 1.37 | 1.27 | 1.46
pThr fixed | 0.215 | 0.234 | 0.259 | 0.263 | 0.44 | 0.253 | 0.593 | 0.715 | 0.515 | 0.622
pTyr fixed | 0.365 | 0.427 | 0.38 | 0.365 | 0.583 | 0.479 | 0.832 | 1.21 | 0.898 | 0.776

TYRO3, construct: aa455-end, human (from UniProt Q06418)
relative phosphorylation
Details | at +1 | at +2 | at +3 | at +4 | at +5 | at -1 | at -2 | at -3 | at -4 | at -5
A fixed | 1.64 | 0.682 | 0.632 | 0.906 | 1.04 | 0.893 | 0.982 | 1 | 1.15 | 0.987
D fixed | 0.676 | 0.549 | 0.322 | 0.681 | 0.669 | 0.66 | 0.935 | 1.1 | 1.03 | 1.01
E fixed | 1.19 | 0.767 | 0.252 | 0.729 | 0.592 | 0.56 | 1.04 | 1.28 | 1.19 | 0.874
F fixed | 1.07 | 1.28 | 1.44 | 1.11 | 0.885 | 1.23 | 0.653 | 0.819 | 0.883 | 0.866
G fixed | 0.816 | 0.424 | 0.71 | 1.2 | 1.26 | 0.524 | 1.3 | 1.18 | 1.35 | 1.2
H fixed | 1.12 | 0.864 | 1.36 | 1.16 | 0.955 | 1.4 | 1.09 | 1.09 | 0.966 | 1.05
I fixed | 0.991 | 1.12 | 1.58 | 0.796 | 0.758 | 1.63 | 0.772 | 0.656 | 0.826 | 0.854
K fixed | 0.534 | 1.1 | 1.03 | 1.18 | 1.39 | 0.719 | 1.14 | 0.998 | 1.04 | 1.16
L fixed | 0.938 | 1.36 | 1.19 | 0.932 | 0.867 | 1.88 | 0.858 | 0.752 | 0.843 | 0.892
M fixed | 1.26 | 1.22 | 1.18 | 1.04 | 0.868 | 1.09 | 0.7 | 0.866 | 0.864 | 0.964
N fixed | 0.544 | 0.901 | 0.626 | 0.843 | 1.01 | 1.03 | 1.25 | 1.16 | 0.956 | 1.19
P fixed | 0.412 | 0.657 | 0.864 | 1.18 | 1.62 | 0.821 | 1.09 | 1.27 | 1.3 | 1.19
Q fixed | 1.13 | 0.962 | 0.795 | 1.07 | 0.936 | 0.837 | 1.23 | 1.06 | 1.22 | 1.06
R fixed | 0.597 | 1.13 | 1.2 | 1.28 | 1.33 | 0.655 | 1.04 | 0.959 | 1.06 | 1.19
S fixed | 1.25 | 0.799 | 0.718 | 1.01 | 1.06 | 0.849 | 1.28 | 1.2 | 0.866 | 0.977
T fixed | 1.2 | 0.996 | 0.808 | 0.85 | 0.982 | 1.07 | 1.13 | 1.09 | 0.775 | 0.884
V fixed | 1.37 | 1.21 | 1.26 | 0.876 | 0.831 | 1.16 | 0.868 | 0.755 | 0.803 | 0.785
W fixed | 1.25 | 1.98 | 2.04 | 1.16 | 0.946 | 1 | 0.649 | 0.764 | 0.888 | 0.868
pThr fixed | 1.04 | 0.889 | 0.217 | 0.396 | 0.43 | 0.664 | 0.826 | 0.977 | 0.895 | 0.854
pTyr fixed | 0.911 | 1.28 | 0.324 | 0.56 | 0.399 | 1.06 | 0.954 | 1.2 | 1.12 | 0.96
